According to the Human Domainome abundance scans (Beltran et al. 2025):

B1: POU domain, class 4, transcription factor 2, residues 256 to 327; numbered along this chain, Q12837 (parent)
chain: RDLEAFAERFKQRRIKLGVTQADVGSALANLKIPGVGSLSQSTICRFESLTLSHNNMIALKPILQAWLEEAE
B2: Retinoic acid receptor beta, residues 85 to 161; numbered along this chain, P10826 (parent)
chain: YKPCFVCQDKSSGYHYGVSACEGCKGFFRRSIQKNMIYTCHRDKNCVINKVTRNRCQYCRLQKCFEVGMSKESVRND

Variants of: B1
Assay: abundance fitness (aPCA) (normalised: wild type 0, dead -1); higher = more abundant; growth selection in yeast, the domain comes from the species named
Details: Homo sapiens

Abundance fitness of substitutions, site by site:
E72: V -0.419 | H -0.38
L64: Y -0.416 | S -0.669 | D -0.6 | T -0.769 | R -1.08 | W -1.11 | G -0.787 | Q -0.75 | H -0.769 | N -0.823 | M -0.371 | V -0.295 | K -0.884 | I -0.394 | P -0.98 | A -0.902
A71: M -0.4 | V -0.296 | P -0.671 | N -0.225 | K -0.125 | I -0.11 | H -0.223 | W -0.057 | E -0.247 | F -0.02 | G -0.284 | Q -0.188 | D -0.614 | L -0.433 | S -0.183
A59: V -0.207 | L -0.091 | S -0.095 | M -0.003 | G -0.169 | H -0.249 | Q 0.062 | K -0.057 | E -0.193 | W -0.087 | T -0.038 | Y -0.026 | C -0.431 | R -0.032 | I 0.027
A66: C -0.378 | H -0.153 | M -0.246 | Y -0.298 | T -0.096 | W -0.138 | I -0.187 | P -0.524 | V -0.153 | E -0.007 | R -0.008 | D 0.098 | K 0.004 | G -0.08
I63: V -0.006 | L -0.217 | G -0.414 | E -0.018 | F 0.164 | W -0.443 | D -0.438 | N -0.628 | Y -0.333 | S -0.224 | Q -0.489 | P -0.329 | R -0.314 | T -0.098 | C -0.231 | A -0.03 | H 0.07 | M -0.382 | K -0.495

Variants of: B2
Assay: as above
Details: Homo sapiens

Abundance fitness: each site, then its substitutions
K2: H 0.091 | Y -0.1 | R -0.282 | M -0.074 | D 0.017 | E -0.285 | A -0.289 | L -0.162 | N 0.162 | V -0.104 | I -0.144 | S -0.068 | G -0.182 | F -0.266 | Q 0.052 | W -0.308 | P -0.169
V6: G -0.746 | E -1.02 | A -0.711 | C -0.995 | F -0.374
Y1: M 0.067 | H 0.055 | W -0.221 | Q -0.132 | G -0.097 | L -0.086 | V 0.158 | E -0.109 | K 0.193 | R -0.239 | I -0.01 | C -0.008 | N 0.255 | T -0.109
P3: S 0.031 | E 0.136 | F 0.037 | N 0.162 | Q 0.079 | A 0.064 | Y 0.174 | W -0.223 | H 0.006 | R -0.321 | L 0.027 | K 0.048 | V -0.023 | I -0.042 | C -0.101 | D 0.225
C4: I -0.917 | P -0.428 | N -0.731 | G -0.859 | R -0.827 | M -0.754 | Y -0.592 | Q -0.889 | W -0.954 | T -1.26 | D -0.715 | V -0.807 | F -0.687 | L -0.778 | A -0.691
F5: H -0.435 | A 0.053 | T -0.048 | G -0.118 | M -0.155 | P 0.076 | W -0.316 | Q -0.046 | D -0.314 | E -0.38 | L -0.076 | S -0.053 | V -0.154 | C -0.244 | N -0.39 | R -0.421 | Y -0.043 | I -0.022 | K -0.418
